Laboratory results from patent US20050070692A1 (published 2005).

What was measured:
human IL-1β [1] = biological target: T1, human IL-1β (human, UniProt P01584 117-269); assay: cell-based or functional assay
porcine IL-1β = biological target: T2, porcine IL-1β (porcine, UniProt P26889 115-267); assay: BIAcore, antibody captured on anti-IgG CM5 chip, IL-1β flowed
T2 sequence (looked up): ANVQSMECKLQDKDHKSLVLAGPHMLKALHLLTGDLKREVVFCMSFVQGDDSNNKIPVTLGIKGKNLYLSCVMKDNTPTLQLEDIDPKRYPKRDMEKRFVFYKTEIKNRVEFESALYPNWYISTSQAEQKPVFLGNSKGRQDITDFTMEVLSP
Description: (§1) Affinities and specificities of both Hu007 and Mu007 were determined using BlAcore measurements. BIAcore™ is an automated biosensor system that measures molecular interactions. (Karlsson, et al. (1991) J. Immunol. Methods 145: 229-240). In these experiments antibody was immobilized at low density on a BIAcore™ chip. Ethyl-dimethylaminopropyl-carbodiimide (EDC) was used to couple reactive amino groups to purified goat anti-human IgG or goat anti-rabbit IgG to a flow cell of a carboxy-methyl (CM5) BIAcore™ sensor chip. Goat IgG was diluted in sodium acetate buffer, pH 4.0, and immobilized on a flow cell of a CM5 chip using EDC to yield 1000 response units. Unreacted sites were blocked with ehanolamine. A flow rate of 60 μL/min was used. Multiple binding/elution cycles were performed by injection a 100 μL solution of 15 μg/mL Mu007 or Hu007 followed by human IL-1β, mouse IL-1β, rat IL-1β, cynomolgus monkey IL-1β, porcine IL-1β, human IL-1 receptor antagonist, and human IL-1α at decreasing concentrations for each cycle (e.g., 1500, 750, 375, 188, 94, 47, 23.5, 12, and 0 picomolar). Elution was performed with glycine-HCl, pH 1.5. BIAevaluation™ was used to analyze the kinetic data. Table 2 depicts the affinities of Hu007 and Mu007 for human and cynomolgus IL-1β. […] Cynomolgus and porcine IL-1β had 100% binding to Hu007 relative to human IL-1β.

human IL-1β [2] = biological target: T1, human IL-1β; assay: as above
Description: as §1

cynomolgus monkey IL-1β = biological target: T3, cynomolgus monkey IL-1β (cynomolgus monkey, UniProt P79182 117-268); assay: as above
T3 construct: also called Cynomolgus IL-1β
T3 sequence (looked up): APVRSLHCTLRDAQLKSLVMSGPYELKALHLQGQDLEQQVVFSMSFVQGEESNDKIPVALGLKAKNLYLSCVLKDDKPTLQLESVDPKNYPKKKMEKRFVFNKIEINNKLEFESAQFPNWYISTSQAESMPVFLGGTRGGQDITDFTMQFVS
Description: as §1

human IL-1β [3] = biological target: T1, human IL-1β; assay: BIAcore, antibody captured on protein A CM5 chip, human IL-1β flowed
Description: Affinities and specificities of several Hu007 analogs were determined using BIAcore measurements. BIAcore™ is an automated biosensor system that measures molecular interactions. (Karlsson, et al. (1991) J. Immunol. Methods 145: 229-240). In these experiments antibody was immobilized at low density on a BIAcore™ chip. Ethyl-dimethylaminopropyl-carbodiimide (EDC) was used to couple reactive amino groups to protein A to a flow cell of a carboxy-methyl (CM5) BIAcore™ sensor chip. Protein A was diluted in sodium acetate buffer, pH 4.5, and immobilized on a flow cell of a CM5 chip using EDC to yield approximately 1000 response units. Unreacted sites were blocked with ethanolamine. A flow rate of 60 μl/min was used. Multiple binding/elution cycles were performed by injection of 10 μl of a 5 μg/mL Hu007 solution, and heavy chain CDR2 analogs N55D, N55S, N55Q, G56A, and G56V, followed by human IL-1β at decreasing concentrations for each cycle (e.g. 1500, 750, 375, 188, and […]). Elution was performed with glycine-HCl, pH 1.5. BIAevaluation™ was used to analyze the kinetic data. Table 5 depicts the affinities of Hu007 and the various Hu007 analogs for human IL-1β.

human IL-1β [4] = biological target: T1, human IL-1β; assay: competition ELISA on coated human IL-1β against biotinylated Mu007, average
Description: (§2) Wells of 96-well ELISA plates (Nunc-lmmuno plate, Cat # 439454, NalgeNunc) were coated with 100 μL of 0.5. μg/mL of human IL-1β in 0.2M sodium carbonate-bicarbonate buffer (pH 9.4) overnight at 4° C., washed with Wash Buffer, blocked with Superblock blocking buffer for 30 min at 37° C., and washed again with Wash Buffer. A mixture of biotinylated Mu007 (0.16 μg/mL final concentration) and competitor antibody (Mu007, Hu007, or Hu007 analogs starting at 100 μg/mL final concentration and serial 3-fold dilutions) in ELISA Buffer were added in triplicate in a final volume of 100 μL per well. As a no-competitor control, 100 μL of 0.16 μg/mL biotinylated Mu007 was used. As a background control, 100 gLL of ELISA Buffer was used. ELISA plates were incubated at 37° C. for 2 hr. After washing the wells with Washing Buffer, 100 μL of 1 μg/mL HRP-conjugated streptavidin (Jackson ImmunoResearch) was added to each well. ELISA plates were incubated at room temperature for 30 min and washed with Washing Buffer. For color development, 100 μL/well of ABTS substrate was added. Color development was stopped by adding 100 μL/well of 2% oxalic acid. Absorbance was read at 415 nm.
(§3) Mu007, Hu007 and Hu007 analogs competed with biotinylated Mu007 in a concentration-dependent manner. […]

human IL-1β [5] = biological target: T1, human IL-1β; assay: competition ELISA on coated human IL-1β against biotinylated Mu007, average of three experiments
Description: as §2, §3

B1: humanized antibody Hu007 (antibody, human IgG1, kappa, V domains shown)
VH: QVQLVQSGAEVKKPGASVKVSCKVSGYTFSRYWIEWVRQAPGKGLEWIGEILPGNGNINYNEKFKGKATITADTSTDTAYMELSSLRSEDTAVYYCSTIYYDYDQGFTYWGQGTLVTVSS
VL: DIQMTQSPSSLSASVGDRVTITCKASQDIDRYLSWFQQKPGKAPKSLIYRVKRLVDGVPSRFSGSASGTDYTLTISSLQPEDFATYYCLQYDEFPYTFGQGTKLEIKR
notes: Human IgG1 kappa; also called WT; Hu007 WT
- IC50, inhibition of IL-1β stimulated proliferation of T1165.17 cells (3H-thymidine), average of three experiments (human IL-1β [1]): 480 pM
- efficacy relative to Mu007 in the murine model of human IL-1β induced IL-6 (human IL-1β [1]): ~0.33 fraction of Mu007
- binding relative to human IL-1β (porcine IL-1β): 100%
- Kd (human IL-1β [2]): 10.2 pM
- Kd (cynomolgus monkey IL-1β): 10.4 pM
- binding relative to human IL-1β (cynomolgus monkey IL-1β): 100%
- Kd (human IL-1β [3]): 10.5 pM
- Hu007/Mu007 × 100 (IC50 ratio, relative binding against Mu007) (human IL-1β [4]): 89%
- IC50 (human IL-1β [5]): 0.35 µg/mL
